Assay results: publication PMC3446985

Target: human GRP78 (human) (UniProt P11021)
Assay: AUC; sedimentation velocity, GRP78 alone at 0.4, 0.6 and 1.2 mg/mL, 28,000 rpm, 20°C, 20 mM sodium phosphate pH 7.0, 100 mM NaCl, 55 mM arginine, c(S) analysis; monomer to dimer

Sequence of human GRP78, P11021 19-654 (natural protein; other documents disagree on this pair) (P11021 19-654): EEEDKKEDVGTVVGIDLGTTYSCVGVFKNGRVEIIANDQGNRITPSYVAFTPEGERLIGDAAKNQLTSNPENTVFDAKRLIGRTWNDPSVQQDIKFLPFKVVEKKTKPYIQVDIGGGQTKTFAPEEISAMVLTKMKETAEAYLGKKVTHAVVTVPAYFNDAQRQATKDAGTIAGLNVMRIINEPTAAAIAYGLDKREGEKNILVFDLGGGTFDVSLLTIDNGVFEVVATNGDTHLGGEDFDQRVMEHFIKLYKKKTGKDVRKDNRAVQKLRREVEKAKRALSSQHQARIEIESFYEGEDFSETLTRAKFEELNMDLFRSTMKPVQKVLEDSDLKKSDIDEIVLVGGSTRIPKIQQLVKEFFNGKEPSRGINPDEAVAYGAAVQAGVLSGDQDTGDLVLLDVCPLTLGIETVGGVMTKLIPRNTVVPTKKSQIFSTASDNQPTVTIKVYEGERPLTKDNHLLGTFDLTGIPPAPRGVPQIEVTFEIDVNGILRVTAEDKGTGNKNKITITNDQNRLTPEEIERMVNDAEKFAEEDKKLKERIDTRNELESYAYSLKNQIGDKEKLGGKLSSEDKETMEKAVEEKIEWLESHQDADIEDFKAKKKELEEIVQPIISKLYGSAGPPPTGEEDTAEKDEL

With “human GRP78, P11021 19-654 (natural protein; other documents disagree on this pair)” as the substance, how does the stoichiometry N read?
Its stoichiometry N is 2.
